Laboratory results published in US20260049138A1 (Chugai, published 2026).

Each binder was assayed against CD3ε homodimer protein (human, UniProt P07766 23-126, limits assumed) (assay: SPR Biacore T200, CD3e homodimer on chip).
Chain of CD3ε homodimer protein (P07766 23-126 limits assumed): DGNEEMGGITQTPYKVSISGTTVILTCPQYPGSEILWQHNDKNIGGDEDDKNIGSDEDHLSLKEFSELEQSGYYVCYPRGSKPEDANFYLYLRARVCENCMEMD
Experimental: An appropriate amount of CD3ε homodimer protein was immobilized onto Sensor chip CM4 (GE Healthcare Japan Corp.) by the amine coupling method. Then, the antibody having an appropriate concentration was injected thereto as an analyte and allowed to interact with the CD3ε homodimer protein on the sensor chip. Then, the sensor chip was regenerated by the injection of 10 mmol/L glycine-HCl (pH 1.5). The assay was conducted at 25° C., and HBS-EP+ (GE Healthcare Japan Corp.) was used as a running buffer. […] Each parameter was calculated using Biacore T200 Evaluation Software (GE Healthcare Japan Corp.).

| Binder | KD ratio (KD of CE115HA000/KD of altered form) |
| --- | --- |
| CE115HA000 D101K one-arm antibody (antibody, human IgG1, kappa, L234A L235A, N297A, name in Kabat numbering) heavy: QVQLVESGGGVVQPGRSLRLSCAASGFTFSNAWMHWVRQAPGKGLEWVAQIKAKSNNYATYYAESVKGRFTISRDDSKNSLYLQMNSLKTEDTAVYYCRYVHYGAYYGVKAWGQGTTVTVSSASTKGPSVFPLAPSSKSTSGGTAALGCLVKDYFPEPVTVSWNSGALTSGVHTFPAVLQSSGLYSLSSVVTVPSSSLGTQTYICNVNHKPSNTKVDKKVEPKSCDKTHTCPPCPAPEAAGGPSVFLFPPKPKDTLMISRTPEVTCVVVDVSHEDPEVKFNWYVDGVEVHNAKTKPREEQYASTYRVVSVLTVLHQDWLNGKEYKCKVSNKALPAPIEKTISKAKGQPREPQVYTLPPSRCELTKNQVSLSCAVKGFYPSDIAVEWESNGQPENNYKTTPPVLDSDGSFFLVSKLTVDKSRWQQGNVFSCSVMHEALHNHYTQKSLSLSPDYKDDDDK EPKSSDKTHTCPPCPAPELLGGPSVFLFPPKPKDTLMISRTPEVTCVVVDVSHEDPEVKFNWYVDGVEVHNAKTKPREEQYNSTYRVVSVLTVLHQDWLNGKEYKCKVSNKALPAPIEKTISKAKGQPREPQVCTLPPSRDELTKNQVSLWCLVKGFYPSDIAVEWESNGQPENNYKTTPPVLDSDGSFFLYSKLTVDKSRWQQGNVFSCSVMHEALHNRYTQKSLSLSP light: DIVMTQSPLSLPVTPGEPASISCRSSQSLVHSNRNTYLHWYQQKPGQAPRLLIYKVSNRFSGVPDRFSGSGSGTDFTLKISRVEAEDVGVYYCGQGTQVPYTFGQGTKLEIKRTVAAPSVFIFPPSDEQLKSGTASVVCLLNNFYPREAKVQWKVDNALQSGNSQESVTEQDSKDSTYSLSSTLTLSKADYEKHKVYACEVTHQGLSSPVTKSFNRGEC | 4.32 |
| CE115HA000 D101R one-arm antibody (antibody, human IgG1, kappa, L234A L235A, N297A, name in Kabat numbering) heavy: QVQLVESGGGVVQPGRSLRLSCAASGFTFSNAWMHWVRQAPGKGLEWVAQIKAKSNNYATYYAESVKGRFTISRDDSKNSLYLQMNSLKTEDTAVYYCRYVHYGAYYGVRAWGQGTTVTVSSASTKGPSVFPLAPSSKSTSGGTAALGCLVKDYFPEPVTVSWNSGALTSGVHTFPAVLQSSGLYSLSSVVTVPSSSLGTQTYICNVNHKPSNTKVDKKVEPKSCDKTHTCPPCPAPEAAGGPSVFLFPPKPKDTLMISRTPEVTCVVVDVSHEDPEVKFNWYVDGVEVHNAKTKPREEQYASTYRVVSVLTVLHQDWLNGKEYKCKVSNKALPAPIEKTISKAKGQPREPQVYTLPPSRCELTKNQVSLSCAVKGFYPSDIAVEWESNGQPENNYKTTPPVLDSDGSFFLVSKLTVDKSRWQQGNVFSCSVMHEALHNHYTQKSLSLSPDYKDDDDK EPKSSDKTHTCPPCPAPELLGGPSVFLFPPKPKDTLMISRTPEVTCVVVDVSHEDPEVKFNWYVDGVEVHNAKTKPREEQYNSTYRVVSVLTVLHQDWLNGKEYKCKVSNKALPAPIEKTISKAKGQPREPQVCTLPPSRDELTKNQVSLWCLVKGFYPSDIAVEWESNGQPENNYKTTPPVLDSDGSFFLYSKLTVDKSRWQQGNVFSCSVMHEALHNRYTQKSLSLSP light: DIVMTQSPLSLPVTPGEPASISCRSSQSLVHSNRNTYLHWYQQKPGQAPRLLIYKVSNRFSGVPDRFSGSGSGTDFTLKISRVEAEDVGVYYCGQGTQVPYTFGQGTKLEIKRTVAAPSVFIFPPSDEQLKSGTASVVCLLNNFYPREAKVQWKVDNALQSGNSQESVTEQDSKDSTYSLSSTLTLSKADYEKHKVYACEVTHQGLSSPVTKSFNRGEC | 5.55 |
| CE115HA000 G98K one-arm antibody (antibody, human IgG1, kappa, L234A L235A, N297A, name in Kabat numbering) heavy: QVQLVESGGGVVQPGRSLRLSCAASGFTFSNAWMHWVRQAPGKGLEWVAQIKAKSNNYATYYAESVKGRFTISRDDSKNSLYLQMNSLKTEDTAVYYCRYVHYKAYYGVDAWGQGTTVTVSSASTKGPSVFPLAPSSKSTSGGTAALGCLVKDYFPEPVTVSWNSGALTSGVHTFPAVLQSSGLYSLSSVVTVPSSSLGTQTYICNVNHKPSNTKVDKKVEPKSCDKTHTCPPCPAPEAAGGPSVFLFPPKPKDTLMISRTPEVTCVVVDVSHEDPEVKFNWYVDGVEVHNAKTKPREEQYASTYRVVSVLTVLHQDWLNGKEYKCKVSNKALPAPIEKTISKAKGQPREPQVYTLPPSRCELTKNQVSLSCAVKGFYPSDIAVEWESNGQPENNYKTTPPVLDSDGSFFLVSKLTVDKSRWQQGNVFSCSVMHEALHNHYTQKSLSLSPDYKDDDDK EPKSSDKTHTCPPCPAPELLGGPSVFLFPPKPKDTLMISRTPEVTCVVVDVSHEDPEVKFNWYVDGVEVHNAKTKPREEQYNSTYRVVSVLTVLHQDWLNGKEYKCKVSNKALPAPIEKTISKAKGQPREPQVCTLPPSRDELTKNQVSLWCLVKGFYPSDIAVEWESNGQPENNYKTTPPVLDSDGSFFLYSKLTVDKSRWQQGNVFSCSVMHEALHNRYTQKSLSLSP light: DIVMTQSPLSLPVTPGEPASISCRSSQSLVHSNRNTYLHWYQQKPGQAPRLLIYKVSNRFSGVPDRFSGSGSGTDFTLKISRVEAEDVGVYYCGQGTQVPYTFGQGTKLEIKRTVAAPSVFIFPPSDEQLKSGTASVVCLLNNFYPREAKVQWKVDNALQSGNSQESVTEQDSKDSTYSLSSTLTLSKADYEKHKVYACEVTHQGLSSPVTKSFNRGEC | 1.85 |

The next lines start with the values.

| KD ratio (KD of CE115HA000/KD of altered form) | Binder |
| --- | --- |
| 18.4 | CE115HA000 K52E one-arm antibody (antibody, human IgG1, kappa, L234A L235A, N297A, name in Kabat numbering) heavy: QVQLVESGGGVVQPGRSLRLSCAASGFTFSNAWMHWVRQAPGKGLEWVAQIEAKSNNYATYYAESVKGRFTISRDDSKNSLYLQMNSLKTEDTAVYYCRYVHYGAYYGVDAWGQGTTVTVSSASTKGPSVFPLAPSSKSTSGGTAALGCLVKDYFPEPVTVSWNSGALTSGVHTFPAVLQSSGLYSLSSVVTVPSSSLGTQTYICNVNHKPSNTKVDKKVEPKSCDKTHTCPPCPAPEAAGGPSVFLFPPKPKDTLMISRTPEVTCVVVDVSHEDPEVKFNWYVDGVEVHNAKTKPREEQYASTYRVVSVLTVLHQDWLNGKEYKCKVSNKALPAPIEKTISKAKGQPREPQVYTLPPSRCELTKNQVSLSCAVKGFYPSDIAVEWESNGQPENNYKTTPPVLDSDGSFFLVSKLTVDKSRWQQGNVFSCSVMHEALHNHYTQKSLSLSPDYKDDDDK EPKSSDKTHTCPPCPAPELLGGPSVFLFPPKPKDTLMISRTPEVTCVVVDVSHEDPEVKFNWYVDGVEVHNAKTKPREEQYNSTYRVVSVLTVLHQDWLNGKEYKCKVSNKALPAPIEKTISKAKGQPREPQVCTLPPSRDELTKNQVSLWCLVKGFYPSDIAVEWESNGQPENNYKTTPPVLDSDGSFFLYSKLTVDKSRWQQGNVFSCSVMHEALHNRYTQKSLSLSP light: DIVMTQSPLSLPVTPGEPASISCRSSQSLVHSNRNTYLHWYQQKPGQAPRLLIYKVSNRFSGVPDRFSGSGSGTDFTLKISRVEAEDVGVYYCGQGTQVPYTFGQGTKLEIKRTVAAPSVFIFPPSDEQLKSGTASVVCLLNNFYPREAKVQWKVDNALQSGNSQESVTEQDSKDSTYSLSSTLTLSKADYEKHKVYACEVTHQGLSSPVTKSFNRGEC |
| 0.88 | CE115HA000 S52cK one-arm antibody (antibody, human IgG1, kappa, L234A L235A, N297A, name in Kabat numbering) heavy: QVQLVESGGGVVQPGRSLRLSCAASGFTFSNAWMHWVRQAPGKGLEWVAQIKAKKNNYATYYAESVKGRFTISRDDSKNSLYLQMNSLKTEDTAVYYCRYVHYGAYYGVDAWGQGTTVTVSSASTKGPSVFPLAPSSKSTSGGTAALGCLVKDYFPEPVTVSWNSGALTSGVHTFPAVLQSSGLYSLSSVVTVPSSSLGTQTYICNVNHKPSNTKVDKKVEPKSCDKTHTCPPCPAPEAAGGPSVFLFPPKPKDTLMISRTPEVTCVVVDVSHEDPEVKFNWYVDGVEVHNAKTKPREEQYASTYRVVSVLTVLHQDWLNGKEYKCKVSNKALPAPIEKTISKAKGQPREPQVYTLPPSRCELTKNQVSLSCAVKGFYPSDIAVEWESNGQPENNYKTTPPVLDSDGSFFLVSKLTVDKSRWQQGNVFSCSVMHEALHNHYTQKSLSLSPDYKDDDDK EPKSSDKTHTCPPCPAPELLGGPSVFLFPPKPKDTLMISRTPEVTCVVVDVSHEDPEVKFNWYVDGVEVHNAKTKPREEQYNSTYRVVSVLTVLHQDWLNGKEYKCKVSNKALPAPIEKTISKAKGQPREPQVCTLPPSRDELTKNQVSLWCLVKGFYPSDIAVEWESNGQPENNYKTTPPVLDSDGSFFLYSKLTVDKSRWQQGNVFSCSVMHEALHNRYTQKSLSLSP light: DIVMTQSPLSLPVTPGEPASISCRSSQSLVHSNRNTYLHWYQQKPGQAPRLLIYKVSNRFSGVPDRFSGSGSGTDFTLKISRVEAEDVGVYYCGQGTQVPYTFGQGTKLEIKRTVAAPSVFIFPPSDEQLKSGTASVVCLLNNFYPREAKVQWKVDNALQSGNSQESVTEQDSKDSTYSLSSTLTLSKADYEKHKVYACEVTHQGLSSPVTKSFNRGEC |
| 22.8 | CE115HA000 Q50A one-arm antibody (antibody, human IgG1, kappa, L234A L235A, N297A, name in Kabat numbering) heavy: QVQLVESGGGVVQPGRSLRLSCAASGFTFSNAWMHWVRQAPGKGLEWVAAIKAKSNNYATYYAESVKGRFTISRDDSKNSLYLQMNSLKTEDTAVYYCRYVHYGAYYGVDAWGQGTTVTVSSASTKGPSVFPLAPSSKSTSGGTAALGCLVKDYFPEPVTVSWNSGALTSGVHTFPAVLQSSGLYSLSSVVTVPSSSLGTQTYICNVNHKPSNTKVDKKVEPKSCDKTHTCPPCPAPEAAGGPSVFLFPPKPKDTLMISRTPEVTCVVVDVSHEDPEVKFNWYVDGVEVHNAKTKPREEQYASTYRVVSVLTVLHQDWLNGKEYKCKVSNKALPAPIEKTISKAKGQPREPQVYTLPPSRCELTKNQVSLSCAVKGFYPSDIAVEWESNGQPENNYKTTPPVLDSDGSFFLVSKLTVDKSRWQQGNVFSCSVMHEALHNHYTQKSLSLSPDYKDDDDK EPKSSDKTHTCPPCPAPELLGGPSVFLFPPKPKDTLMISRTPEVTCVVVDVSHEDPEVKFNWYVDGVEVHNAKTKPREEQYNSTYRVVSVLTVLHQDWLNGKEYKCKVSNKALPAPIEKTISKAKGQPREPQVCTLPPSRDELTKNQVSLWCLVKGFYPSDIAVEWESNGQPENNYKTTPPVLDSDGSFFLYSKLTVDKSRWQQGNVFSCSVMHEALHNRYTQKSLSLSP light: DIVMTQSPLSLPVTPGEPASISCRSSQSLVHSNRNTYLHWYQQKPGQAPRLLIYKVSNRFSGVPDRFSGSGSGTDFTLKISRVEAEDVGVYYCGQGTQVPYTFGQGTKLEIKRTVAAPSVFIFPPSDEQLKSGTASVVCLLNNFYPREAKVQWKVDNALQSGNSQESVTEQDSKDSTYSLSSTLTLSKADYEKHKVYACEVTHQGLSSPVTKSFNRGEC |
